Measured values as given in PMC2213037.

Molecular target: Syk tyrosine kinase (mouse (endogenous in NMuMG)) (UniProt P48025)
Assay: co-IP

Chain of Syk tyrosine kinase (mouse (endogenous in NMuMG)) (P48025 whole entry): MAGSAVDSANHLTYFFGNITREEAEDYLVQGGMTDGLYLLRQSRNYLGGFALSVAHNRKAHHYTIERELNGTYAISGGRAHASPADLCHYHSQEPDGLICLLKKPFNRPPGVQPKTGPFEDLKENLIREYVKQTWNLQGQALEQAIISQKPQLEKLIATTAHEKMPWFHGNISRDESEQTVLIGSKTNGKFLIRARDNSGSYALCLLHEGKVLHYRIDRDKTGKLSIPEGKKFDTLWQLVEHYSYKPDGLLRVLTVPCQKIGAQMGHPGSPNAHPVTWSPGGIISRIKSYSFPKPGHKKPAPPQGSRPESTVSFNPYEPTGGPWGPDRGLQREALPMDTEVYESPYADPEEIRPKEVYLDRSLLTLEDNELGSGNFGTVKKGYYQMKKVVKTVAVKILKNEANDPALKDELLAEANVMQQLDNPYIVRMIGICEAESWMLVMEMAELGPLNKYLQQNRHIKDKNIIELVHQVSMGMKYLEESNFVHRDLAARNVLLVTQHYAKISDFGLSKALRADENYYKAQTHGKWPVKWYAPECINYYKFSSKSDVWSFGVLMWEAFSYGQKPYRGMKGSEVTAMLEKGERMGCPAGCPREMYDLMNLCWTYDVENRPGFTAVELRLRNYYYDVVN
Chain of MMTV Env surface unit (SU, gp52) (P03374 99-688): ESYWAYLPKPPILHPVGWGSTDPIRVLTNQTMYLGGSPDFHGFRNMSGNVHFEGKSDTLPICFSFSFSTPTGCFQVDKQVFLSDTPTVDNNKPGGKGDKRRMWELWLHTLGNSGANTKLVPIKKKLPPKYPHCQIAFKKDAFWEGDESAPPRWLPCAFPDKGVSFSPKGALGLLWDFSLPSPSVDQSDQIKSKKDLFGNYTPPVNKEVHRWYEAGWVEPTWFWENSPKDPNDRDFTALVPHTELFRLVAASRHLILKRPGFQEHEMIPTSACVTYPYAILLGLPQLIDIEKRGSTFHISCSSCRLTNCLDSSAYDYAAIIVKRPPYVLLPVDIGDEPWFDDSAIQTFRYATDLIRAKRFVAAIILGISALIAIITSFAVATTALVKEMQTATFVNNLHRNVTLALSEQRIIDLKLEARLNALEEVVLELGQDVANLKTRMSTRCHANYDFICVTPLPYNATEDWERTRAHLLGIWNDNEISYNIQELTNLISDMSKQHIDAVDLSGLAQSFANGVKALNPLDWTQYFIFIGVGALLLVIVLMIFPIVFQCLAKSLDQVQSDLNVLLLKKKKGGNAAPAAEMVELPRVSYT

Substance “MMTV Env surface unit (SU, gp52) (from UniProt P03374 99-454) (natural protein)” has a percent of SU coprecipitated with Syk of less than 34%.
